The values below come from patent US20240384250A1, “FIBROBLAST GROWTH FACTOR 23 MODULATING COMPOUNDS” (THE UAB RESEARCH FOUNDATION, priority 2021, published 2024).

The target in test [1] is T1, FGFR1c (Homo sapiens, UniProt P11362).
T1 construct: Fc-coupled FGFR ectodomains were immobilized on protein A/G beads; purchased R&D Systems 658FR050
T1 sequence (P11362 22-376 limits assumed): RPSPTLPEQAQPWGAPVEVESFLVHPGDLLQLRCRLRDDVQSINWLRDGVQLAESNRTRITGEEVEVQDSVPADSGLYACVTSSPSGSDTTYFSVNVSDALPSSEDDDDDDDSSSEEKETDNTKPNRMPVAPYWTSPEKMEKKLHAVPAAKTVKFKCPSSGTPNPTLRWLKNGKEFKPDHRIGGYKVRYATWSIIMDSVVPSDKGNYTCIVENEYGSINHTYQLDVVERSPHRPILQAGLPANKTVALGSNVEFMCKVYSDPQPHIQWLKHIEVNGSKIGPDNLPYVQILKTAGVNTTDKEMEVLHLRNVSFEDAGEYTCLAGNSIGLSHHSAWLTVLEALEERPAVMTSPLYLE
Description: Plate-based binding assay, FGFR1c coated, FLAG-sKL detected with anti-FLAG HRP. The settings on record: for binding of FLAG-sKL to coated FGFR1c: 40 ng FGFR1c coated, 80 ng FLAG-sKL, compared with FGFR4 and FGF23. The procedure:
Proteins were coated on 96-well plates (MaxiSorp; 439454, Thermo Fisher Scientific), and proteins were added to wells in 100 μl of enzyme-linked immunosorbent assay (ELISA) coating buffer (E107, Bethyl Laboratories) with a lid placed overtop and incubated at 4° C. overnight. Plates were washed 5× with 350 μl of assay buffer (50 mM Tris [pH 7.4], 200 mM NaCl, 0.01% Tween 20) on a 50 TS microplate washer (BioTek). Plates were blocked for 1 hour in 200 μl of assay buffer with 0.5% BSA. Plates were washed as before, and proteins were incubated on plates in 100 μl of assay buffer with 0.5% BSA. Proteins or heparin was incubated in orders described in the respective figure legends. Assays using FLAG-tag-based detection were incubated with anti-FLAG coupled to HRP at 1:20,000, and assays using Fc detection were incubated with anti-human Fc coupled to HRP at 1:10,000. Plates were washed as above, and 100 μl of 3,3′,5,5′-tetramethylbenzidine (TMB) substrate (E102, Bethyl Laboratories) was added for 15 to 20 minutes until positive wells developed a dark blue color. Reactions were stopped with ELISA stop solution (E115, Bethyl Laboratories) and analyzed using the Synergy HI plate reader (BioTek) at 450 nm wavelength. […] As a control to remove background absorbance values, wells were coated with an equal amount of BSA to match the amount of protein coated in experimental wells and treated the same as experimental wells. To study the effects of sKL on the binding between paracrine FGFs and FGFRs, plates were run as above except coated with paracrine FGFs. Fc-FGFR1 was preincubated with sKL or vehicle for 60 minutes, and then the combination was added to wells and the assay was run as before.

Test [2] addresses T2, FGFR4 (Homo sapiens, UniProt P22455).
T2 construct: Fc-FGFR4 protein (human ectodomain) was immobilized; purchased R&D Systems 685FR050
T2 sequence (P22455 22-369 limits assumed): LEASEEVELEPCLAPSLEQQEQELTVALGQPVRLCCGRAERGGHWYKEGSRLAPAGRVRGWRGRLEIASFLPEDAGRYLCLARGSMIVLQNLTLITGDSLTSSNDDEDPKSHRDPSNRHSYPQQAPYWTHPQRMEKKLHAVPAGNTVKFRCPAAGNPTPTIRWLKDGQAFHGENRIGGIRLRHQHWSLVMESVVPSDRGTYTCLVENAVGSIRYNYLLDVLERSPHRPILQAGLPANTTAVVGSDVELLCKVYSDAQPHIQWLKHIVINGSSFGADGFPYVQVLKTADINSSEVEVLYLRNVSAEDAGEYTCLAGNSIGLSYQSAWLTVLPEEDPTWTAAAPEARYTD
Description: Surface plasmon resonance, FGFR4 ectodomain immobilized on chip. It is filed as binding. The settings on record: SPR. The procedure:
For the direct quantitative analysis of label-free molecular interactions in real time, surface plasmon resonance studies were conducted using BIAcore T200 and T200 evaluation software (28975001, Cytiva). Sensor SA (BR100398) and CMS chips (BR100399) were from Cytiva. For the preparation of heparin chips, heparin (2 mg) and amine-PEG3-Biotin (2 mg, 21347, Pierce) were dissolved in 200 μl of H2O and 10 mg of NaCNBH3 was added. The reaction mixture was heated at 70° C. for 24 hours; an additional 10 mg of NaCNBH3 was added; and the reaction was heated at 70° C. for another 24 hours. After cooling to room temperature, the mixture was desalted with the spin column (3000 MWCO). Biotinylated heparin was collected, freeze dried, and used for chip preparation. Biotinylated heparin was immobilized to streptavidin chips according to the manufacturer's protocol. In brief, 20 μl of biotinylated heparin solution (0.1 mg/ml) in HBS-P running buffer (0.01 M N-2-hydroxyethylpiperazine-N′-2-ethanesulfonic acid, 0.15 M NaCl, 0.005% surfactant P20 [pH7.4]; BR100368, Cytiva) was injected over flow cell 2 of the streptavidin chip at a flow rate of 10 μl/min. The successful immobilization of heparin was confirmed by the observation of an approximately 200-resonance unit increase in the sensor chip. The control flow cell (flow cell 1) was prepared by 1-minute injection with saturated biotin. For the preparation of FGFR4 chips, Fc-FGFR4 protein (human ectodomain) was immobilized on research grade CMS chips according to the standard amine coupling protocol. Briefly, carboxymethyl groups on the CMS chip surface were first activated using an injection pulse of […] of an equimolar mix of N-ethyl-N-(dimethylaminopropyl) carbodiimide and N-hydroxysuccinimide (final concentration 0.05 M, mixed immediately before injection). After activation, FGFR4 was diluted to […] in 100 mM sodium acetate (pH 5.5) buffer and injected over the activated biosensor surface. […] The response was monitored as a function of time (sensorgram) at 25° C.

“Also recorded” adds a separate entry of the source.

B1: sKL: recombinant soluble α-klotho ectodomain, mouse aa 35-982 and human aa 34-981, FLAG- or Strep/His-tagged, purified from HEK293 cells (protein)
chain: EPGDGAQTWARFSRPPAPEAAGLFQGTFPDGFLWAVGSAAYQTEGGWQQHGKGASIWDTFTHHPLAPPGDSRNASLPLGAPSPLQPATGDVASDSYNNVFRDTEALRELGVTHYRFSISWARVLPNGSAGVPNREGLRYYRRLLERLRELGVQPVVTLYHWDLPQRLQDAYGGWANRALADHFRDYAELCFRHFGGQVKYWITIDNPYVVAWHGYATGRLAPGIRGSPRLGYLVAHNLLLAHAKVWHLYNTSFRPTQGGQVSIALSSHWINPRRMTDHSIKECQKSLDFVLGWFAKPVFIDGDYPESMKNNLSSILPDFTESEKKFIKGTADFFALCFGPTLSFQLLDPHMKFRQLESPNLRQLLSWIDLEFNHPQIFIVENGWFVSGTTKRDDAKYMYYLKKFIMETLKAIKLDGVDVIGYTAWSLMDGFEWHRGYSIRRGLFYVDFLSQDKMLLPKSSALFYQKLIEKNGFPPLPENQPLEGTFPCDFAWGVVDNYIQVDTTLSQFTDLNVYLWDVHHSKRLIKVDGVVTKKRKSYCVDFAAIQPQIALLQEMHVTHFRFSLDWALILPLGNQSQVNHTILQYYRCMASELVRVNITPVVALWQPMAPNQGLPRLLARQGAWENPYTALAFAEYARLCFQELGHHVKLWITMNEPYTRNMTYSAGHNLLKAHALAWHVYNEKFRHAQNGKISIALQADWIEPACPFSQKDKEVAERVLEFDIGWLAEPIFGSGDYPWVMRDWLNQRNNFLLPYFTEDEKKLIQGTFDFLALSHYTTILVDSEKEDPIKYNDYLEVQEMTDITWLNSPSQVAVVPWGLRKVLNWLKFKYGDLPMYIISNGIDDGLHAEDDQLRVYYMQNYINEALKAHILDGINLCGYFAYSFNDRTAPRFGLYRYAADQFEPKASMKHYRKIIDSNGFPGPETLERFCPEEFTVCTECSFFHTRKS
modifications: left off: small tags and cut ends
notes: recombinant soluble α-klotho ectodomain, mouse aa 35-982 and human aa 34-981, FLAG- or Strep/His-tagged, purified from HEK293 cells
For B1, the “binding of FLAG-sKL to coated FGFR1c” value was “highest affinity” in test [1] and “highest affinity; also recorded: bound FGFR1c” in test [1] (listed as FLAG-sKL). Besides, the “FGFR1c binding, protein from HEK293 lysates instead of supernatants” value in test [1] (200 ng FGFR1c coated) is reported as “smaller increase”.

B2: FGF23: recombinant fibroblast growth factor 23 protein from R&D Systems (protein)
chain: YPDTSPLLGSNWGSLTHLYTATARTSYHLQIHRDGHVDGTPHQTIYSALMITSEDAGSVVITGAMTRRFLCMDLHGNIFGSLHFSPENCKFRQWTLENGYDVYLSQKHHYLVSLGRAKRIFQPGTNPPPFSQFLARRNEVPLLHFYTVRPRRHTRSAEDPPERDPLNVLKPRPRATPVPVSCSRELPSAEEGGPAASDPLGVLRRGRGDARGGAGGADRCRPFPRFV
As for B2, binding in test [2] was put at a Kd of 320 nM. Also, in test [2] (25° C.), the ka is 1.2 × 10^3 1/MS and the kd is listed as 0.04 1/S.
